# Assay results published in publication PMC9360328, “Tenuous Transcriptional Threshold of Human Sex Determination. I. SRY and Swyer Syndrome at the Edge of Ambiguity”.
# B1: 15-bp consensus SRY site, FRET-labeled (dsDNA)
# DNA 1: TCGGTGATTGTTCAG
# DNA 2: CTGAACAATCACCGA
# Biological target: SRY HMG box WT (Homo sapiens, UniProt Q05066 56-141)
# Experiment: FRET titration; 15 C, 25 nM DNA; FRET titration: 10 mM potassium phosphate, 10 mM Tris-HCl, 140 mM KCl, 1 mM EDTA, 1 mM DTT, pH 8.4, 15 C, 25 nM DNA; PGE: 10 nM DNA, 20 nM protein, 0.5x TBE, 4
# Conditions: protein: recombinant; label: 5'-6-FAM (hexanyl linker) on upper strand; 5'-TAMRA (hexanyl linker) on lower strand; blunt
# SRY HMG box WT, sequence (Q05066 56-141): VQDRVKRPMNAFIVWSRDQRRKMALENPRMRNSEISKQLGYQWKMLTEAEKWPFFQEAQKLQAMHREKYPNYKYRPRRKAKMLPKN
binder,measurement,value
B1,Kd,10 ± 3 nM
